Here are results for 45 substances from patent publication US20250154262A1.

Assay [1] addresses hFcγRIIIa-V158 (human) (UniProt P08637). The assay is described as follows: SPR, further study.
The target is the same in assay [2]. Put plainly: SPR (Carterra LSA), captured on protein A/G, hFcγRIIIa-V158 injected, 1:1 fit [Cont. 7].
For assay [3] the target is unchanged. The assay is described as follows: SPR (Carterra LSA), captured on protein A/G, hFcγRIIIa-V158 injected, 1:1 fit [Cont. 5].
Assay [4] shares this target. The assay is described as follows: SPR (Carterra LSA), protein AG capture.
The target is the same in assay [5]. Put plainly: SPR (Carterra LSA), captured on protein A/G, hFcγRIIIa-V158 injected, 1:1 fit.
For assay [6] the target is unchanged. The assay is described as follows: SPR (Carterra LSA), captured on protein A/G, hFcγRIIIa-V158 injected, 1:1 fit [Cont. 3].

Sequence of hFcγRIIIa-V158 (human) (P08637 17-208 F176V limits assumed): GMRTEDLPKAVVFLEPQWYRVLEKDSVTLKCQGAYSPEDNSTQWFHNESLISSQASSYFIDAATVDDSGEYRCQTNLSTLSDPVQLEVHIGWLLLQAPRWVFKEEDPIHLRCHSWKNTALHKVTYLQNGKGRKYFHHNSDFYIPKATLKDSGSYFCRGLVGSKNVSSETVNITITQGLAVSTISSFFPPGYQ

In the assay with hFcγRIIIa-V158 (human) [1], H268D, Y373W, S298A (antibody) registered a Fold Change vs. WT of 5.8 fold, a Kd of 82.6 nM, a koff of 0.0273 s⁻¹ and an on-rate (kon) of 332000 M⁻¹ s⁻¹.

H268D, L314M, S298A (antibody) displayed a Kd in the assay with hFcγRIIIa-V158 (human) [1] of 85.1 nM.

For adalimumab (antibody), the Kd with hFcγRIIIa-V158 (human) [2] came to 190 nM; with hFcγRIIIa-V158 (human) [3], 310 nM.

In the assay with hFcγRIIIa-V158 (human) [1], H268D, L314K (antibody) came in with a Fold Change vs. WT of 3 fold, a dissociation constant (Kd) of 159 nM, a koff of 0.0516 s⁻¹ and a kon of 324000 M⁻¹ s⁻¹.

Regarding H268D, S267D, A339T (antibody), in the assay with hFcγRIIIa-V158 (human) [1], the Fold Change vs. WT was determined as 4 fold, the Kd turned out to be 119 nM, the koff was found to be 0.0525 s⁻¹ and the kon amounted to 442000 M⁻¹ s⁻¹.

H268E, L314T, D376V (antibody) yielded a Kd with hFcγRIIIa-V158 (human) [1] of 159 nM.

In the assay with hFcγRIIIa-V158 (human) [1], H268D, L314N (antibody) showed a Fold Change vs. WT of 4.9 fold, a Kd of 96.5 nM, a koff of 0.0452 s⁻¹ and a kon of 471000 M⁻¹ s⁻¹.

In the assay with hFcγRIIIa-V158 (human) [1], H268D_L251Q_L314M_S298A (antibody) had a Fold Change vs. WT of 7.8 fold, a Kd of 60.8 nM, a koff of 0.0279 s⁻¹ and a kon of 509000 M⁻¹ s⁻¹. Further, in the assay with hFcγRIIIa-V158 (human) [4], the Fold-change relative to WT was found to be 11.8 fold, the Kd turned out to be 24.6 nM, the koff was 0.0125 s⁻¹ and the kon came out at 509000 M⁻¹ s⁻¹.

“WT (from UniProt P01857 1-330) (antibody)”: the Kd is 350 nM in the assay with hFcγRIIIa-V158 (human) [2]; 477 nM with hFcγRIIIa-V158 (human) [1]; 289 nM with hFcγRIIIa-V158 (human) [4]; 350 nM in the assay with hFcγRIIIa-V158 (human) [5]; 290 nM with hFcγRIIIa-V158 (human) [6].

Turning to H268D, Y373W (antibody), the Kd in the assay with hFcγRIIIa-V158 (human) [1] amounted to 221 nM.

In the assay with hFcγRIIIa-V158 (human) [1], H268D, L314T, S298A (antibody) yielded a Fold Change vs. WT of 10.2 fold, an equilibrium dissociation constant (Kd) of 46.8 nM, a koff of 0.0217 s⁻¹ and an association rate constant (kon) of 465000 M⁻¹ s⁻¹.

In the assay with hFcγRIIIa-V158 (human) [1], H268D_L314T (antibody) returned a Fold Change vs. WT of 3.8 fold, a dissociation constant (Kd) of 125 nM, a koff of 0.0481 s⁻¹ and a kon of 384000 M⁻¹ s⁻¹. In the assay with hFcγRIIIa-V158 (human) [4], this substance had a Fold-change relative to WT of 3.5 fold, a Kd of 83 nM, a dissociation rate constant (koff) of 0.026 s⁻¹ and a kon of 314000 M⁻¹ s⁻¹.

As to H268E_L314V_L251A_A330M (antibody), in the assay with hFcγRIIIa-V158 (human) [4], the Fold-change relative to WT is 5.1 fold, the equilibrium dissociation constant (Kd) stood at 57.6 nM, the koff was found to be 0.021 s⁻¹ and the kon was found to be 365000 M⁻¹ s⁻¹.

In the assay with hFcγRIIIa-V158 (human) [4], L314W_A339T_A330M_D376T (antibody) gave a Fold-change relative to WT of 1.6 fold, a Kd of 179 nM, a koff of 0.045 s⁻¹ and a kon of 252000 M⁻¹ s⁻¹.

In the assay with hFcγRIIIa-V158 (human) [4], H268D_L251W (antibody) came in with a Fold-change relative to WT of 4 fold, a Kd of 72.8 nM, a dissociation rate constant (koff) of 0.0682 s⁻¹ and a kon of 936000 M⁻¹ s⁻¹.

Turning to S267D_L314T_A339T (antibody), the Kd with hFcγRIIIa-V158 (human) [4] is 208 nM.

With H268D_L251W_Y373W_S298A (antibody), in the assay with hFcγRIIIa-V158 (human) [4], the Fold-change relative to WT was found to be 3.3 fold, the Kd came to 89.1 nM, the koff is 0.034 s⁻¹ and the kon was 381000 M⁻¹ s⁻¹.

In the assay with hFcγRIIIa-V158 (human) [4], S298A_A330Y_D376V (antibody) returned a Fold-change relative to WT of 3.8 fold, a Kd of 77.2 nM, a koff of 0.0285 s⁻¹ and a kon of 369000 M⁻¹ s⁻¹.

H268D_A330Y_D376V (antibody): the dissociation constant Kd with hFcγRIIIa-V158 (human) [1] amounted to 152 nM; with hFcγRIIIa-V158 (human) [4], 87.6 nM.

In the assay with hFcγRIIIa-V158 (human) [4], H268D_L251W_L314M_S298A (antibody) had a Fold-change relative to WT of 4.2 fold, a Kd of 69.1 nM, a koff of 0.0269 s⁻¹ and a kon of 389000 M⁻¹ s⁻¹.

For S298A_A330Y_L314K (antibody), in the assay with hFcγRIIIa-V158 (human) [4], the Fold-change relative to WT amounted to 3.3 fold, the dissociation constant (Kd) was found to be 88.4 nM, the off-rate constant (koff) was found to be 0.0207 s⁻¹ and the kon is 235000 M⁻¹ s⁻¹.

Consider H268D, A330F, S298A (antibody), for which, in the assay with hFcγRIIIa-V158 (human) [1], the Fold Change vs. WT was 6 fold, the Kd was determined as 80.1 nM, the koff was 0.0311 s⁻¹ and the kon turned out to be 389000 M⁻¹ s⁻¹.

In the assay with hFcγRIIIa-V158 (human) [4], H268D_L251W_Y373W (antibody) gave a Kd of 86.8 nM.

Turning to H268E_L251W_L314I_A330F (antibody), in the assay with hFcγRIIIa-V158 (human) [4], the Fold-change relative to WT was 2.6 fold, the Kd was determined as 111 nM, the koff came to 0.0308 s⁻¹ and the kon was 276000 M⁻¹ s⁻¹.

With H268D_L251W_L314T_S298A (antibody), the Kd with hFcγRIIIa-V158 (human) [4] turned out to be 51.7 nM.

Substance H268D_L251I_A330F_S298A (antibody) showed a Kd with hFcγRIIIa-V158 (human) [4] of 32.1 nM.

With H268D_L251F_L314M_S298A (antibody), in the assay with hFcγRIIIa-V158 (human) [4], the Fold-change relative to WT worked out at 7.9 fold, the Kd is 36.7 nM, the koff worked out at 0.0125 s⁻¹ and the kon is 340000 M⁻¹ s⁻¹.

Take H268D_L251F_L314K (antibody): in the assay with hFcγRIIIa-V158 (human) [4], the Fold-change relative to WT worked out at 4.4 fold, the Kd worked out at 65.6 nM, the dissociation rate constant (koff) was found to be 0.024 s⁻¹ and the kon is 366000 M⁻¹ s⁻¹.

In the assay with hFcγRIIIa-V158 (human) [1], H268D, L314S (antibody) came in with a Fold Change vs. WT of 3.1 fold, a Kd of 152 nM, a koff of 0.0434 s⁻¹ and a kon of 286000 M⁻¹ s⁻¹.

H268D_L251F_L314M_Y373W (antibody): in the assay with hFcγRIIIa-V158 (human) [4], the Fold-change relative to WT was found to be 3.7 fold, the Kd was found to be 79.5 nM, the koff was found to be 0.023 s⁻¹ and the kon was 289000 M⁻¹ s⁻¹.

As to L314V_A330F_Y373W_H268A (antibody), in the assay with hFcγRIIIa-V158 (human) [4], the Fold-change relative to WT is 1.5 fold, the Kd was 190 nM, the koff was determined as 0.035 s⁻¹ and the association rate constant (kon) came out at 184000 M⁻¹ s⁻¹.

In the assay with hFcγRIIIa-V158 (human) [4], S298A_A330Y_A339T_Y373W (antibody) showed a Fold-change relative to WT of 3.1 fold, a Kd of 93.3 nM, a koff of 0.0206 s⁻¹ and a kon of 221000 M⁻¹ s⁻¹.

In the assay with hFcγRIIIa-V158 (human) [4], A330Y_D376V_Y373W (antibody) displayed a Fold-change relative to WT of 2.4 fold, an equilibrium dissociation constant (Kd) of 123 nM, a koff of 0.0786 s⁻¹ and a kon of 637000 M⁻¹ s⁻¹.

Turning to H268D_L251Q_L314M (antibody), in the assay with hFcγRIIIa-V158 (human) [4], the Fold-change relative to WT came out at 3.1 fold, the Kd stood at 93.9 nM, the koff was 0.03 s⁻¹ and the kon came out at 319000 M⁻¹ s⁻¹.

As for H268D_A330Y_Y373W (antibody), in the assay with hFcγRIIIa-V158 (human) [4], the Fold-change relative to WT came out at 4.1 fold, the Kd was 71.7 nM, the koff came out at 0.025 s⁻¹ and the kon was found to be 349000 M⁻¹ s⁻¹.

Regarding H268D_L251Q_S298A (antibody), the figures for the Kd with hFcγRIIIa-V158 (human) [1] and with hFcγRIIIa-V158 (human) [4] were 55 nM and 31.1 nM, respectively.

In the assay with hFcγRIIIa-V158 (human) [4], H268D_L251F_Y373W (antibody) had a Fold-change relative to WT of 3.3 fold, a Kd of 88.2 nM, a koff of 0.0228 s⁻¹ and an on-rate constant (kon) of 258000 M⁻¹ s⁻¹.

In the case of L251F_S267A_L314S (antibody), in the assay with hFcγRIIIa-V158 (human) [4], the Fold-change relative to WT was determined as 1.7 fold, the Kd came out at 174 nM, the koff worked out at 0.038 s⁻¹ and the kon came out at 218000 M⁻¹ s⁻¹.

Turning to L251I_L314G_A339T_A330F (antibody), in the assay with hFcγRIIIa-V158 (human) [4], the Fold-change relative to WT is 0.2 fold, the equilibrium dissociation constant (Kd) is 1610 nM, the koff worked out at 0.062 s⁻¹ and the kon turned out to be 38500 M⁻¹ s⁻¹.

H268D_L251F_L314T (antibody) gave a Kd with hFcγRIIIa-V158 (human) [4] of 68.2 nM.

On to H268D_A330Y_L314K (antibody), for which, in the assay with hFcγRIIIa-V158 (human) [4], the Fold-change relative to WT worked out at 5.9 fold, the Kd is 49.1 nM, the koff amounted to 0.0189 s⁻¹ and the kon is 385000 M⁻¹ s⁻¹.

In the assay with hFcγRIIIa-V158 (human) [4], H268D_L251Q (antibody) displayed a Fold-change relative to WT of 2.7 fold, an equilibrium dissociation constant (Kd) of 107 nM, a koff of 0.047 s⁻¹ and a kon of 438000 M⁻¹ s⁻¹.

In the assay with hFcγRIIIa-V158 (human) [4], S267D_A330Y_L251W_D376V (antibody) registered a Fold-change relative to WT of 3.2 fold, a Kd of 91.4 nM, a koff of 0.036 s⁻¹ and a kon of 394000 M⁻¹ s⁻¹.

Regarding H268D, S298A (antibody), the Kd with hFcγRIIIa-V158 (human) [1] turned out to be 95.7 nM.

In the assay with hFcγRIIIa-V158 (human) [4], H268D_A339T_S298A (antibody) showed a Fold-change relative to WT of 6.4 fold, a Kd of 45.4 nM, a koff of 0.0126 s⁻¹ and a kon of 278000 M⁻¹ s⁻¹.
